From article PMC10786891, “Massively parallel profiling of RNA-targeting CRISPR-Cas13d” come the findings set out here.

T1: EsCas13d, nuclease-dead (Eubacterium siraeum, UniProt B0MS50, R295A;H300A;R849A;H854A)
T1 sequence: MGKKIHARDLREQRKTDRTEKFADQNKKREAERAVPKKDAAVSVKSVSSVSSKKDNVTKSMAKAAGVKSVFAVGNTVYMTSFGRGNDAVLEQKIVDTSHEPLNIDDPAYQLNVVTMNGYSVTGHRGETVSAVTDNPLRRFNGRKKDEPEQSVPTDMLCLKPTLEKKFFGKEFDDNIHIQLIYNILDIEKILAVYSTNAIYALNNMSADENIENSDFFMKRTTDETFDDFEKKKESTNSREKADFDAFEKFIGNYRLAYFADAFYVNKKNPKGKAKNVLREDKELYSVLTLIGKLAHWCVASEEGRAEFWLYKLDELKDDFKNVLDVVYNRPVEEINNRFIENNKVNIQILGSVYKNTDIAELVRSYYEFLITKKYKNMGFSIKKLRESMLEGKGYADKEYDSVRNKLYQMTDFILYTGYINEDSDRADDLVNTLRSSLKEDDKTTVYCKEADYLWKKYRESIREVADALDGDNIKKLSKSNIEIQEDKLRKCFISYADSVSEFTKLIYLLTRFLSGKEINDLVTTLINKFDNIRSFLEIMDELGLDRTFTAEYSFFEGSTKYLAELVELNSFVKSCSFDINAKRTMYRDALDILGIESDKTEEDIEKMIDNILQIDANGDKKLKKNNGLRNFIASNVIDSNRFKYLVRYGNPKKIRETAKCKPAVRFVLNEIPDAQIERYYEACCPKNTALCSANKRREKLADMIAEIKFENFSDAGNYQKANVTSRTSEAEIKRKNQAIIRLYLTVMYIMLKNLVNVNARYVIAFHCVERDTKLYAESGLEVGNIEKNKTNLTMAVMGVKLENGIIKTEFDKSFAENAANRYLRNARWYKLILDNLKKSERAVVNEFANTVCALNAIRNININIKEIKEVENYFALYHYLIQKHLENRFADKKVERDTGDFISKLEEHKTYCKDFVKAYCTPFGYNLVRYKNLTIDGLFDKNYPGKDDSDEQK

B1: target 1 C2A,A20C (mixed)
RNA 1: CACCCGUGCAAAAAUGCAGGGGUCUAAAACUGAGCGGAUAACCUCUCUAUGG
RNA 2: GGGAAUGGAUCCACAUCUACGAAUUCGUACCCUAGAGAGGUUAUCCGCUAACCGAGAUCGGAAGAGCACACGU
B2: target 1 insC 3' of 20,insU 3' of 5 (mixed)
RNA 1: CACCCGUGCAAAAAUGCAGGGGUCUAAAACUGAGCGGAUAACCUCUCUAUGG
RNA 2: GGGAAUGGAUCCACAUCUACGAAUUCGUACCACUAGAGAGGUUAUCCGUCUCACCGAGAUCGGAAGAGCACACGU
B3: target 1 insC 3' of 19,insC 3' of 19 (mixed)
RNA 1: CACCCGUGCAAAAAUGCAGGGGUCUAAAACUGAGCGGAUAACCUCUCUAUGG
RNA 2: GGGAAUGGAUCCACAUCUACGAAUUCGUACCAUCCAGAGAGGUUAUCCGCUCACCGAGAUCGGAAGAGCACACGU
B4: target 1 insU 3' of 5,insA 3' of 3 (mixed)
RNA 1: CACCCGUGCAAAAAUGCAGGGGUCUAAAACUGAGCGGAUAACCUCUCUAUGG
RNA 2: GGGAAUGGAUCCACAUCUACGAAUUCGUACCAUAGAGAGGUUAUCCGUCUACACCGAGAUCGGAAGAGCACACGU
B5: target 1 insC 3' of 5,insA 3' of 5 (mixed)
RNA 1: CACCCGUGCAAAAAUGCAGGGGUCUAAAACUGAGCGGAUAACCUCUCUAUGG
RNA 2: GGGAAUGGAUCCACAUCUACGAAUUCGUACCAUAGAGAGGUUAUCCGCACUCACCGAGAUCGGAAGAGCACACGU
B6: target 1 A20C,C21G (mixed)
RNA 1: CACCCGUGCAAAAAUGCAGGGGUCUAAAACUGAGCGGAUAACCUCUCUAUGG
RNA 2: GGGAAUGGAUCCACAUCUACGAAUUCGUACGCUAGAGAGGUUAUCCGCUCACCGAGAUCGGAAGAGCACACGU
B7: target 1 U8C,A16U (mixed)
RNA 1: CACCCGUGCAAAAAUGCAGGGGUCUAAAACUGAGCGGAUAACCUCUCUAUGG
RNA 2: GGGAAUGGAUCCACAUCUACGAAUUCGUACCAUAGUGAGGUUACCCGCUCACCGAGAUCGGAAGAGCACACGU
B8: target 1 U10A,G12A (mixed)
RNA 1: CACCCGUGCAAAAAUGCAGGGGUCUAAAACUGAGCGGAUAACCUCUCUAUGG
RNA 2: GGGAAUGGAUCCACAUCUACGAAUUCGUACCAUAGAGAGAUAAUCCGCUCACCGAGAUCGGAAGAGCACACGU
B9: target 1 insC 3' of 16,insC 3' of 15 (mixed)
RNA 1: CACCCGUGCAAAAAUGCAGGGGUCUAAAACUGAGCGGAUAACCUCUCUAUGG
RNA 2: GGGAAUGGAUCCACAUCUACGAAUUCGUACCAUAGACGCAGGUUAUCCGCUCACCGAGAUCGGAAGAGCACACGU
B10: target 1 del3,del15 (mixed)
RNA 1: CACCCGUGCAAAAAUGCAGGGGUCUAAAACUGAGCGGAUAACCUCUCUAUGG
RNA 2: GGGAAUGGAUCCACAUCUACGAAUUCGUACCAUAGAAGGUUAUCCGCCACCGAGAUCGGAAGAGCACACGU
B11: target 1 C2U,U8C (mixed)
RNA 1: CACCCGUGCAAAAAUGCAGGGGUCUAAAACUGAGCGGAUAACCUCUCUAUGG
RNA 2: GGGAAUGGAUCCACAUCUACGAAUUCGUACCAUAGAGAGGUUACCCGCUUACCGAGAUCGGAAGAGCACACGU
B12: target 1 insU 3' of 5,insG 3' of 4 (mixed)
RNA 1: CACCCGUGCAAAAAUGCAGGGGUCUAAAACUGAGCGGAUAACCUCUCUAUGG
RNA 2: GGGAAUGGAUCCACAUCUACGAAUUCGUACCAUAGAGAGGUUAUCCGUCGUCACCGAGAUCGGAAGAGCACACGU
B13: target 1 insU 3' of 7,insG 3' of 7 (mixed)
RNA 1: CACCCGUGCAAAAAUGCAGGGGUCUAAAACUGAGCGGAUAACCUCUCUAUGG
RNA 2: GGGAAUGGAUCCACAUCUACGAAUUCGUACCAUAGAGAGGUUAUCUGCGCUCACCGAGAUCGGAAGAGCACACGU
B14: target 1 insC 3' of 19,insG 3' of 18 (mixed)
RNA 1: CACCCGUGCAAAAAUGCAGGGGUCUAAAACUGAGCGGAUAACCUCUCUAUGG
RNA 2: GGGAAUGGAUCCACAUCUACGAAUUCGUACCAUCAGGAGAGGUUAUCCGCUCACCGAGAUCGGAAGAGCACACGU
B15: target 1 insG 3' of 20,insC 3' of 19 (mixed)
RNA 1: CACCCGUGCAAAAAUGCAGGGGUCUAAAACUGAGCGGAUAACCUCUCUAUGG
RNA 2: GGGAAUGGAUCCACAUCUACGAAUUCGUACCAGUCAGAGAGGUUAUCCGCUCACCGAGAUCGGAAGAGCACACGU
B16: target 1 C6A,C21A (mixed)
RNA 1: CACCCGUGCAAAAAUGCAGGGGUCUAAAACUGAGCGGAUAACCUCUCUAUGG
RNA 2: GGGAAUGGAUCCACAUCUACGAAUUCGUACAAUAGAGAGGUUAUCAGCUCACCGAGAUCGGAAGAGCACACGU
B17: target 1 insG 3' of 10,insC 3' of 5 (mixed)
RNA 1: CACCCGUGCAAAAAUGCAGGGGUCUAAAACUGAGCGGAUAACCUCUCUAUGG
RNA 2: GGGAAUGGAUCCACAUCUACGAAUUCGUACCAUAGAGAGGUUGAUCCGCCUCACCGAGAUCGGAAGAGCACACGU
B18: target 1 insA 3' of 11,insA 3' of 8 (mixed)
RNA 1: CACCCGUGCAAAAAUGCAGGGGUCUAAAACUGAGCGGAUAACCUCUCUAUGG
RNA 2: GGGAAUGGAUCCACAUCUACGAAUUCGUACCAUAGAGAGGUAUAUACCGCUCACCGAGAUCGGAAGAGCACACGU
B19: target 1 insA 3' of 22,insA 3' of 7 (mixed)
RNA 1: CACCCGUGCAAAAAUGCAGGGGUCUAAAACUGAGCGGAUAACCUCUCUAUGG
RNA 2: GGGAAUGGAUCCACAUCUACGAAUUCGUACACAUAGAGAGGUUAUCACGCUCACCGAGAUCGGAAGAGCACACGU
B20: target 1 insU 3' of 15,insA 3' of 3 (mixed)
RNA 1: CACCCGUGCAAAAAUGCAGGGGUCUAAAACUGAGCGGAUAACCUCUCUAUGG
RNA 2: GGGAAUGGAUCCACAUCUACGAAUUCGUACCAUAGAGUAGGUUAUCCGCUACACCGAGAUCGGAAGAGCACACGU
B21: target 1 del4 (mixed)
RNA 1: CACCCGUGCAAAAAUGCAGGGGUCUAAAACUGAGCGGAUAACCUCUCUAUGG
RNA 2: GGGAAUGGAUCCACAUCUACGAAUUCGUACCAUAGAGAGGUUAUCCGUCACCGAGAUCGGAAGAGCACACGU
B22: target 1 insA 3' of 15,insU 3' of 14 (mixed)
RNA 1: CACCCGUGCAAAAAUGCAGGGGUCUAAAACUGAGCGGAUAACCUCUCUAUGG
RNA 2: GGGAAUGGAUCCACAUCUACGAAUUCGUACCAUAGAGAAUGGUUAUCCGCUCACCGAGAUCGGAAGAGCACACGU
B23: target 1 insA 3' of 15,insA 3' of 12 (mixed)
RNA 1: CACCCGUGCAAAAAUGCAGGGGUCUAAAACUGAGCGGAUAACCUCUCUAUGG
RNA 2: GGGAAUGGAUCCACAUCUACGAAUUCGUACCAUAGAGAAGGAUUAUCCGCUCACCGAGAUCGGAAGAGCACACGU
B24: target 1 U3G,U19C (mixed)
RNA 1: CACCCGUGCAAAAAUGCAGGGGUCUAAAACUGAGCGGAUAACCUCUCUAUGG
RNA 2: GGGAAUGGAUCCACAUCUACGAAUUCGUACCACAGAGAGGUUAUCCGCGCACCGAGAUCGGAAGAGCACACGU
B25: target 1 insU 3' of 20,insU 3' of 12 (mixed)
RNA 1: CACCCGUGCAAAAAUGCAGGGGUCUAAAACUGAGCGGAUAACCUCUCUAUGG
RNA 2: GGGAAUGGAUCCACAUCUACGAAUUCGUACCAUUAGAGAGGUUUAUCCGCUCACCGAGAUCGGAAGAGCACACGU
B26: target 1 insG 3' of 14,insG 3' of 14 (mixed)
RNA 1: CACCCGUGCAAAAAUGCAGGGGUCUAAAACUGAGCGGAUAACCUCUCUAUGG
RNA 2: GGGAAUGGAUCCACAUCUACGAAUUCGUACCAUAGAGAGGGGUUAUCCGCUCACCGAGAUCGGAAGAGCACACGU
B27: target 1 insG 3' of 20,insC 3' of 9 (mixed)
RNA 1: CACCCGUGCAAAAAUGCAGGGGUCUAAAACUGAGCGGAUAACCUCUCUAUGG
RNA 2: GGGAAUGGAUCCACAUCUACGAAUUCGUACCAGUAGAGAGGUUACUCCGCUCACCGAGAUCGGAAGAGCACACGU

The data set addresses T1, EsCas13d, nuclease-dead. Kind of data set: crRNA (strand 1, pre-loaded); Mg2+; 40 mM Tris-HCl pH 7.5, 150 mM NaCl, 6 mM MgCl2, 1 mM DTT, 0.1% Tween-20, 0.2 mg/ml BSA; 25 C; 10 min per concentration, then washed. Conditions: tags: His6-TwinStrep-SUMO cleaved; N-terminal SNAP kept (SNAP-Surface 488); label: 3' end held by stalled T7 RNA polymerase.
A word on the Kd: it is the equilibrium constant for the complex coming apart. A high value points to a looser complex. B1 had a Kd of 36 ± 4 nM. As for B2, binding was put at a Kd of 8.6 ± 0.9 nM. On to B3, for which the Kd was 29.2 ± 3.5 nM. Molecule B4 yielded a Kd of 19.9 ± 1.7 nM. B5 displayed a Kd of 11.5 ± 0.5 nM.

Turning to B6, the Kd stood at 57 ± 26 nM. The molecule B7 came in with a Kd of 59 ± 8 nM. With B8, the affinity, expressed as Kd, was 5.86 ± 0.25 nM. In turn, B9 showed a Kd of 84 ± 27 nM. The value for B10 was 30.2 ± 3.3 nM; that for B11 was 10.1 ± 0.8 nM; that for B12 was 12.7 ± 0.9 nM. The value for B13 was 9.1 ± 0.6 nM.

In turn, B14 registered a Kd of 89 ± 19 nM. As to B15, the Kd was 59 ± 10 nM. The value for B16 was 23.5 ± 1.7 nM. B17 came in with a Kd of 46 ± 8 nM. In turn, B18 yielded a Kd of 39.7 ± 3.3 nM. The value for B19 was 8 ± 0.6 nM; that for B20 was 8.9 ± 0.6 nM; that for B21 was 34 ± 7 nM. For the molecule B22, the Kd is 21.1 ± 1.8 nM. As for B23, binding was put at a Kd of 42 ± 5 nM. Consider B24, for which binding was characterised by a dissociation constant (Kd) of 25.1 ± 3.4 nM. Molecule B25 came in with a Kd of 11.5 ± 0.7 nM. Turning to B26, binding was put at a Kd of 7.7 ± 0.6 nM. In the case of B27, the Kd is roughly 45 nM.
